Assay [1] concerns the target HIV-1 Env of 20 pseudotyped viruses representing 10 different HIV-1 clades. The experiment in a line: cell-based or functional assay.
Assay [2] shares this target. The experiment in a line: cell-based or functional assay. This is another data set of the same source.
In assay [3] the target is T1, MPER binding peptide (Acetyl-[…]-Ttds-Lys-(Biotin)-NH2) (HIV-1).
For assay [4], the target named is T1, MPER binding peptide …. This is another data set of the same source.

These results are taken from patent publication US20220226495A1.

Where two headings read alike, the source gives them in different places.

B1: V1/V2 directed Ab “b” (antibody, V domains shown)
VH: QVQLVESGGGVVQPGTSLRLSCAASQFRFDGYGMHWVRQAPGKGLEWVASISHDGIKKYHAEKVWGRFTISRDNSKNTLYLQMNSLRPEDTALYYCAKDLREDECEEWWSDYYDFGKQLPCAKSRGGLVGIADNWGQGTMVTVSS
VL: QSVLTQPPSVSAAPGQKVTISCSGNTSNIGNNFVSWYQQRPGRAPQLLIYETDKRPSGIPDRFSASKSGTSGTLAITGLQTGDEADYYCATWAASLSSARVFGTGTKVIVL
For the molecule B1, in assay [1], the % VS Neutralized IC80 <1 µg/mL was 45%, the % VS Neutralized IC80 <50 µg/mL amounted to 45%, the Geometric Mean came out at 0.039 µg/mL and the Median IC80 came to 0.051 µg/mL. In assay [1], this molecule gave a Total VS Neutralized IC80 <1 µg/mL (viruses of 20) of 9 and a Total VS Neutralized IC80 <50 µg/mL (viruses of 20) of 9.

B2: V1/V2 directed Ab “a” (antibody, V domains shown)
VH: QVHLTQSGPEVRKPGTSVKVSCKAPGNTLKTYDLHWVRSVPGQGLQWMGWISHEGDKKVIVERFKAKVTIDWDRSTNTAYLQLSGLTSGDTAVYYCAKGSKHRLRDYALYDDDGALNWAVDVDYLSNLEFWGQGTAVTVSS
VL: DFVLTQSPHSLSVTPGESASISCKSSHSLIHGDRNNYLAWYVQKPGRSPQLLIYLASSRASGVPDRFSGSGSDKDFTLKISRVETEDVGTYYCMQGRESPWTFGQGTKVDIK
For the molecule B2, in assay [2], the % VS Neutralized IC80 <1 µg/mL was determined as 45%, the % VS Neutralized IC80 <50 µg/mL turned out to be 55%, the Geometric Mean came out at 0.094 µg/mL and the Median IC80 turned out to be 0.06 µg/mL. In assay [2], this molecule gave a Total VS Neutralized IC80 <1 µg/mL (viruses of 20) of 9 and a Total VS Neutralized IC80 <50 µg/mL (viruses of 20) of 11.

B3: Binding Protein 2 (protein)
heavy 1: RAHLVQSGTAMKKPGASVRVSCQTSGYTFTAHILFWFRQAPGRGLEWVGWIKPQYGAVNFGGGFRDRVTLTRDVYREIAYMDIRGLKPDDTAVYYCARDRSYGDSSWALDAWGQGTTVVVSAASTKGPSVFPLAPSSKSTSGGTAALGCLVKDYFPEPVTVSWNSGALTSGVHTFPAVLQSSGLYSLSSVVTVPSSSLGTQTYICNVNHKPSNTKVDKKVEPKSCDKTHTCPPCPAPELLGGPSVFLFPPKPKDTLMISRTPEVTCVVVDVSHEDPEVKFNWYVDGVEVHNAKTKPREEQYNSTYRVVSVLTVLHQDWLNGKEYKCKVSNKALPAPIEKTISKAKGQPREPQVCTLPPSRDELTKNQVSLSCAVKGFYPSDIAVEWESNGQPENNYKTTPPVLDSDGSFFLVSKLTVDKSRWQQGNVFSCSVLHEALHSHYTQKSLSLSPG
light 1: YIHVTQSPSSLSVSIGDRVTINCQTSQGVGSDLHWYQHKPGRAPKLLIHHTSSVEDGVPSRFSGSGFHTSFNLTISDLQADDIATYYCQVLQFFGRGSRLHIKRTVAAPSVFIFPPSDEQLKSGTASVVCLLNNFYPREAKVQWKVDNALQSGNSQESVTEQDSKDSTYSLSSTLTLSKADYEKHKVYACEVTHQGLSSPVTKSFNRGEC
heavy 2: EVRLVESGGGLVKPGGSLRLSCSASGFDFDNAWMTWVRQPPGKGLEWVGRITGPGEGWSVDYAESVKGRFTISRDNTKNTLYLEMNNVRTEDTGYYFCARTGKYYDFWSGYPPGEEYFQDWGQGTLVIVSSDKTHTQVHLTQSGPEVRKPGTSVKVSCKAPGNTLKTYDLHWVRSVPGQGLQWMGWISHEGDKKVIVERFKAKVTIDWDRSTNTAYLQLSGLTSGDTAVYYCAKGSKHRLRDYALYDDDGALNWAVDVDYLSNLEFWGQGTAVTVSSDKTHTASTKGPSVFPLAPSSKSTSGGTAALGCLVKDYFPEPVTVSWNSGALTSGVHTFPAVLQSSGLYSLSSVVTVPSSSLGTQTYICNVNHKPSNTKVDKKVEPKSCDKTHTCPPCPAPELLGGPSVFLFPPKPKDTLMISRTPEVTCVVVDVSHEDPEVKFNWYVDGVEVHNAKTKPREEQYNSTYRVVSVLTVLHQDWLNGKEYKCKVSNKALPAPIEKTISKAKGQPREPQVYTLPPCRDELTKNQVSLWCLVKGFYPSDIAVEWESNGQPENNYKTTPPVLDSDGSFFLYSKLTVDKSRWQQGNVFSCSVLHEALHSHYTQKSLSLSPG
light 2: DFVLTQSPHSLSVTPGESASISCKSSHSLIHGDRNNYLAWYVQKPGRSPQLLIYLASSRASGVPDRFSGSGSDKDFTLKISRVETEDVGTYYCMQGRESPWTFGQGTKVDIKDKTHTASELTQDPAVSVALKQTVTITCRGDSLRSHYASWYQKKPGQAPVLLFYGKNNRPSGIPDRFSGSASGNRASLTITGAQAEDEADYYCSSRDKSGSRLSVFGGGTKLTVLDKTHTRTVAAPSVFIFPPSDEQLKSGTASVVCLLNNFYPREAKVQWKVDNALQSGNSQESVTEQDSKDSTYSLSSTLTLSKADYEKHKVYACEVTHQGLSSPVTKSFNRGEC
For the molecule B3, in assay [3], the Ka amounted to 1.65e+08 M⁻¹, the Kd was determined as 6.05 nM, the koff came out at 0.000697 s⁻¹ and the kon came to 115000 M⁻¹ s⁻¹. Also, the fold higher affinity than the MPER antibody in assay [4] is 3.1 fold. Besides, in assay [2], the % VS Neutralized IC80 <1 µg/mL is 65%, the % VS Neutralized IC80 <50 µg/mL amounted to 90%, the Geometric Mean came out at 0.222 µg/mL and the Median IC80 is 0.375 µg/mL. For the same molecule, in assay [2], the Total VS Neutralized IC80 <1 µg/mL (viruses of 20) was 13 and the Total VS Neutralized IC80 <50 µg/mL (viruses of 20) was 18.

B4: Binding Protein 3 (protein)
heavy 1: B3 heavy 1
light 1: B3 light 1
heavy 2: QVHLTQSGPEVRKPGTSVKVSCKAPGNTLKTYDLHWVRSVPGQGLQWMGWISHEGDKKVIVERFKAKVTIDWDRSTNTAYLQLSGLTSGDTAVYYCAKGSKHRLRDYALYDDDGALNWAVDVDYLSNLEFWGQGTAVTVSSDKTHTEVRLVESGGGLVKPGGSLRLSCSASGFDFDNAWMTWVRQPPGKGLEWVGRITGPGEGWSVDYAESVKGRFTISRDNTKNTLYLEMNNVRTEDTGYYFCARTGKYYDFWSGYPPGEEYFQDWGQGTLVIVSSDKTHTASTKGPSVFPLAPSSKSTSGGTAALGCLVKDYFPEPVTVSWNSGALTSGVHTFPAVLQSSGLYSLSSVVTVPSSSLGTQTYICNVNHKPSNTKVDKKVEPKSCDKTHTCPPCPAPELLGGPSVFLFPPKPKDTLMISRTPEVTCVVVDVSHEDPEVKFNWYVDGVEVHNAKTKPREEQYNSTYRVVSVLTVLHQDWLNGKEYKCKVSNKALPAPIEKTISKAKGQPREPQVYTLPPCRDELTKNQVSLWCLVKGFYPSDIAVEWESNGQPENNYKTTPPVLDSDGSFFLYSKLTVDKSRWQQGNVFSCSVLHEALHSHYTQKSLSLSPG
light 2: ASELTQDPAVSVALKQTVTITCRGDSLRSHYASWYQKKPGQAPVLLFYGKNNRPSGIPDRFSGSASGNRASLTITGAQAEDEADYYCSSRDKSGSRLSVFGGGTKLTVLDKTHTDFVLTQSPHSLSVTPGESASISCKSSHSLIHGDRNNYLAWYVQKPGRSPQLLIYLASSRASGVPDRFSGSGSDKDFTLKISRVETEDVGTYYCMQGRESPWTFGQGTKVDIKDKTHTRTVAAPSVFIFPPSDEQLKSGTASVVCLLNNFYPREAKVQWKVDNALQSGNSQESVTEQDSKDSTYSLSSTLTLSKADYEKHKVYACEVTHQGLSSPVTKSFNRGEC
In assay [3], B4 registered a Ka of 6e+07 M⁻¹, a Kd of 16.7 nM, an off-rate constant (koff) of 0.000779 s⁻¹ and a kon of 46700 M⁻¹ s⁻¹. Further, in assay [2], the % VS Neutralized IC80 <1 µg/mL was 60%, the % VS Neutralized IC80 <50 µg/mL was found to be 90%, the Geometric Mean turned out to be 0.287 µg/mL and the Median IC80 is 0.469 µg/mL. Further, in assay [2], the Total VS Neutralized IC80 <1 µg/mL (viruses of 20) was 12 and the Total VS Neutralized IC80 <50 µg/mL (viruses of 20) is 18.
